The test concerns the target cGMP phosphodiesterase 6 (PDE6) hetero-tetramer, native bovine (bovine) (UniProt P11541). Description: cryo-EM structure.
Sequence of UniProt P11541 (P11541 whole entry, chain 1 of 3): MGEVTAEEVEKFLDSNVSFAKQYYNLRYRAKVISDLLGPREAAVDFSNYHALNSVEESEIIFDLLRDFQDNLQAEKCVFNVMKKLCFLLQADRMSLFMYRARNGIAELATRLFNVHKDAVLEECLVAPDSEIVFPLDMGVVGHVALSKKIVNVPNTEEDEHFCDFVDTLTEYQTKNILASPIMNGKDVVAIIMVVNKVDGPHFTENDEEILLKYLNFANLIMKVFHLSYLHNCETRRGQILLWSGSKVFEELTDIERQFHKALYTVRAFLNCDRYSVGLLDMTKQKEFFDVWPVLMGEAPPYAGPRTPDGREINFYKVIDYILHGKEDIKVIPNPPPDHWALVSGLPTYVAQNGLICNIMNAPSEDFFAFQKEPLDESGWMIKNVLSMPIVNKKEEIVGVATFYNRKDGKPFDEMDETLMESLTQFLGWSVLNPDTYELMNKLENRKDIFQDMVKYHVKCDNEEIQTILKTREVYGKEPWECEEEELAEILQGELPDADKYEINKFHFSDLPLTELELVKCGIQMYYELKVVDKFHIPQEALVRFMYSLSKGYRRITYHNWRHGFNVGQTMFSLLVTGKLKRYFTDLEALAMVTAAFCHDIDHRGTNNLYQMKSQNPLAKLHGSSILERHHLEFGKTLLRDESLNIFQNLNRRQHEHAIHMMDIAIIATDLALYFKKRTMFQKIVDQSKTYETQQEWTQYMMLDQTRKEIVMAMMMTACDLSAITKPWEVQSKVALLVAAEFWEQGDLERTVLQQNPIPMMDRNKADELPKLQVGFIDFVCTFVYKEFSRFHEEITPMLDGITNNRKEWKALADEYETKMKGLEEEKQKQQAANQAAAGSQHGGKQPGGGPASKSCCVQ
Sequence of UniProt P11541 (P23439 whole entry, chain 2 of 3, further chain): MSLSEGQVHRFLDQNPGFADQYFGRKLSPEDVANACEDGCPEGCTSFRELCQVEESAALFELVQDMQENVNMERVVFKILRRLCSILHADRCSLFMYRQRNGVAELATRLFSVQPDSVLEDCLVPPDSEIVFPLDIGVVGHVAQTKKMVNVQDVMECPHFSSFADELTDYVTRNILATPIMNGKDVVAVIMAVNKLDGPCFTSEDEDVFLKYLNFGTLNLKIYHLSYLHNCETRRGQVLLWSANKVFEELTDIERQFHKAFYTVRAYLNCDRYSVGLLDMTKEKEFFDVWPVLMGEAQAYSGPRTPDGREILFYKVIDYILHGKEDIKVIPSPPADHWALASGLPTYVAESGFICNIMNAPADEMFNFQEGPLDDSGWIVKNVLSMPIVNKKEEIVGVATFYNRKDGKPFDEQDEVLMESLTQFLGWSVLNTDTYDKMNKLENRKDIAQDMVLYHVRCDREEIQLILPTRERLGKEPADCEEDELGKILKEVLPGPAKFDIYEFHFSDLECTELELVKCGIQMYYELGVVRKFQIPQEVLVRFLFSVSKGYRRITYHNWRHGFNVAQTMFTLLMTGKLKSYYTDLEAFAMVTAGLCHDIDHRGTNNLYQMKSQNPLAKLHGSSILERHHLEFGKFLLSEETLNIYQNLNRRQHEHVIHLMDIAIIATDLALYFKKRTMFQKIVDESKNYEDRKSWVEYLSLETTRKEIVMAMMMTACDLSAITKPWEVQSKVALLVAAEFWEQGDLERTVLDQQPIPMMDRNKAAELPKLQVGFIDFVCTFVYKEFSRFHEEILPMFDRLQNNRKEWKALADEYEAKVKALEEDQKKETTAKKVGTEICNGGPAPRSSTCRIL
Sequence of UniProt P11541 (P04972 whole entry, chain 3 of 3, further chain): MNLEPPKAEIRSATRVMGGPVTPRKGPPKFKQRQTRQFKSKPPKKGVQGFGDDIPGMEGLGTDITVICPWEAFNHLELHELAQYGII

Substance “1D4-tagged recombinant GαT subunit (R174C, Q200L), GTP-bound (from UniProt P04695 1-350) (natural protein)” showed a stoichiometry N (GαT·GTP per PDE6 hetero-tetramer) of 2.

The values are drawn from PMC7597677.
